Patent US20220127350A1 (NUMAB THERAPEUTICS, published 2022)

What was measured:
[1] = biological target: T1, human TNFα (human, UniProt P01375 77-233); test: cell-based or functional assay
[2] = biological target: T2, human IL-17A (human, UniProt Q16552 24-155, limits assumed); test: cell-based or functional assay
[3] = biological target: T1, human TNFα; test: cell-based or functional assay; remark: listed apart in the source
[4] = biological target: T1, human TNFα; test: SPR (summary table), affinity to human TNF
Experimental: (§1) In this experiment, the biotinylated antigens were captured using the Biotin-CAPture kit from Biacore. After each analyte injection cycle the CAP sensor chip was regenerated and new antigen was captured. Trispecific molecules were injected as analyte using a dose response multicycle kinetic assay with concentrations of the analyte ranging from 0.35 to 90 nM diluted in running buffer. Obtained sensorgrams were fitted using the 1:1 binding model.

[5] = biological target: T3, human serum albumin (human, UniProt P02768 25-609); test: SPR (summary table), affinity to HSA at pH 5.5
T3 construct: also called HSA
Experimental: (§2) The binding to human serum albumin (HSA) and cynomolgus serum albumin (CSA) was assessed for purified trispecific molecules by running SPR spectroscopy on a MASS-1 device (Sierra Sensors). HSA was directly immobilized on a high capacity amine sensor chip (Sierra Sensors) and trispecific molecules were injected as analyte using a dose response multicycle kinetic assay with concentrations of the analyte ranging from 0.35 to 90 nM diluted either in running buffer at pH5.5 or pH7.5. Obtained sensorgrams were fitted using the 1:1 binding model. Affinity to CSA was assessed in a similar approach using a CSA immobilized sensor chip.

[6] = biological target: T2, human IL-17A; test: SPR (summary table), affinity to human IL-17, capture setup
Experimental: as §1

[7] = biological target: T4, cynomolgus serum albumin (cynomolgus monkey, UniProt A2V9Z4 25-608); test: SPR (MASS-1), CSA immobilised, trispecific as analyte, pH 5.5
T4 construct: also called CSA
Experimental: as §2

[8] = biological target: T4, cynomolgus serum albumin; test: SPR (MASS-1), CSA immobilised, trispecific as analyte, pH 7.4
Experimental: as §2

[9] = biological target: T3, human serum albumin; test: SPR (MASS-1), HSA immobilised, trispecific as analyte, pH 5.5
Experimental: as §2

[10] = biological target: T3, human serum albumin; test: SPR (MASS-1), HSA immobilised, trispecific as analyte, pH 7.4
Experimental: as §2

[11] = biological target: T3, human serum albumin; test: SPR (MASS-1), trispecific immobilised, HSA injected as last analyte
Experimental: (§3) All possible sequences of antigen injection were tested resulting in six possible sequences.
(§4) To evaluate concomitant binding of each antigen to trispecific molecules, the binding level relative to the theoretical Rmax was calculated for each injection using the respective ligand and analyte molecular masses and the immobilization level of the trispecific molecules. The average of the maximum binding relative to theoretical Rmax for each antigen was obtained by averaging individual maximum binding relative to theoretical Rmax obtained for the two injections where the respective antigen was injected as first analyte (in the absence of other bound antigens). Next, the binding relative to the theoretical Rmax of each analyte injection was compared to its average maximum binding to calculate the fraction binding obtained in the presence of other bound antigens. […] The binding levels relative to the theoretical Rmax and the average of maximum binding (binding levels in the absence of other antigens) of each antigen were calculated.

[12] = biological target: T2, human IL-17A; test: SPR (MASS-1), trispecific immobilised, antigens injected sequentially
Experimental: as §3, §4

[13] = biological target: T1, human TNFα; test: as above
Experimental: as §3, §4

[14] = biological target: T3, human serum albumin; test: as above
Experimental: as §3, §4

[15] = biological target: T2, human IL-17A; test: competitive ELISA, blocking of IL-17A/IL-17RA interaction (summary table)
Experimental: (§5) Finally, Tetramethylbenzidine solution was added to develop the plate for 5 to 10 minutes and the reaction was stopped with 1 M HCl. The plate was read at 450 nm and 570 nm (reference wavelength).

[16] = biological target: T2, human IL-17A; test: SPR (Biacore T200), biotinylated antigen captured (Biotin-CAPture), trispecific as analyte;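 further: multicycle dose-response kinetics, analyte at 0.35–90 nM in running buffer, CAP chip regenerated with fresh antigen each cycle, sensorgrams fitted to a 1:1 binding model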
Experimental: as §1

[17] = biological target: T5, cynomolgus monkey IL-17A (Macaca fascicularis (cynomolgus monkey)); test: as above
T5 construct: also called cyno IL-17A; cyno IL17A
Experimental: as §1

[18] = biological target: T1, human TNFα; test: as above
Experimental: as §1

[19] = biological target: T2, human IL-17A; test: competitive ELISA: IL-17RA coated, biotinylated IL-17A preincubated with trispecific molecule
Experimental: as §5

[20] = biological target: T2, human IL-17A; test: competitive ELISA: biotinylated human IL-17A preincubated with the trispecific molecule, then binding to coated IL-17RA detected (blocked ligand: IL-17RA) [right panel]

Binder | IC50 in L929 assay, cell viability [1] [nM] | rel. IC50 in L929 assay (IC50, A13/IC50, test sample, nM) [1] | rel. IC50 to secukinumab (ng/ml) in HT-29 assay, +HSA [2] | rel. IC50 to secukinumab (ng/ml) in HT-29 assay, -HSA [2] | rel. IC50 to A13 (nM) in HT-29 assay, +HSA [3] | rel. IC50 to A13 (nM) in HT-29 assay, -HSA [3] | Kd [4] [nM] | Kd [5] [nM] | Kd [6] [nM] | Kd [9] [nM] | koff [9] [s⁻¹] | kon [9] [M⁻¹ s⁻¹] | Kd [10] [nM] | koff [10] [s⁻¹] | kon [10] [M⁻¹ s⁻¹] | relative binding level compared to average maximum binding [11] [%] | antigen binding relative to average maximum binding [12] [%] | antigen binding relative to average maximum binding [13] [%] | antigen binding relative to average maximum binding [14] [%] | rel. IC50 (IC50, secukinumab/IC50, test sample, ng/ml) [15] | other results
A7 (trispecific scDb-scFv) (other, Single chain; also called scDb-scFv A7) DIQMTQSPSSLSASVGDRVTINCQASESISSWLAWYQQKPGKRPKLLIYKASTLASGVPSRFSGSGSGTDYTLTISSLQPEDFATYYCQGYYLDSSVDDNVFGGGTKLTVLGGGGGSEVQLVESGGGLVQPGGSLRLSCAASGFSFSSDYWMCWVRQAPGKGLEWIGCIYAGDVDDTDYASWARGRFTISRDNSKNTVYLQMNSLRAEDTAVYYCARVDGFDITYFDLWGQGTLVTVSSGGGGSGGGGSGGGGSGGGGSDIQMTQSPSSLSASVGDRVTITCQASQTINYWLAWYQQKPGKAPKLLIYRASTLASGVPSRFSGSGSGTDFTLTISSLQPEDFATYYCQNYYYSTSRSYGFGGGTKLTVLGGGGGSEVQLVESGGGLVQPGGSLRLSCAASGIDFSTYGISWVRQAPGKGLEWIAYIYPDYGITDYASWVNGRFTISLDNAQNTVYLQMNSLRAEDTAVYYCARSGSYYSRGWGAHYFNLWGQGTLVTVSSGGGGSGGGGSDIQMTQSPSSLSASVGDRVTITCQSSESVYSNNQLSWYQQKPGQPPKLLIYDASDLASGVPSRFSGSGSGTDFTLTISSLQPEDFATYYCAGGFSSSSDTAFGGGTKLTVLGGGGGSGGGGSGGGGSGGGGSEVQLVESGGGLVQPGGSLRLSCAASGFSLSSNAMGWVRQAPGKGLEYIGIISVGGFTYYASWAKGRFTISRDNSKNTVYLQMNSLRAEDTATYFCARDRHGGDSSGAFYLWGQGTLVTVSS | 0.01 | 1 | 64.5 | 52 | 1 | 4.8 | 0.122 | 1.32 | 0.341 | 1.32 | 0.000373 | 284000 | 1.91 | 0.000369 | 193000 | ~70 | ≥ 70 | ≥ 70 | ≥ 70 | 10.6 | Kd [7]: 0.463 nM; koff [7]: 0.000147 s⁻¹; kon [7]: 318000 M⁻¹ s⁻¹; Kd [8]: 1.31 nM; koff [8]: 0.000215 s⁻¹; kon [8]: 164000 M⁻¹ s⁻¹; Kd [16]: 0.341 nM; koff [16]: 7.83e-05 s⁻¹; kon [16]: 229000 M⁻¹ s⁻¹; Kd [17]: 0.223 nM; koff [17]: 5.89e-05 s⁻¹; kon [17]: 264000 M⁻¹ s⁻¹; Kd [18]: 0.122 nM; koff [18]: 3.59e-05 s⁻¹; kon [18]: 296000 M⁻¹ s⁻¹; rel. IC50 to secukinumab (IC50, secukinumab/IC50, test sample, ng/ml) [19]: 10.6; IC50 (read off the curve) [20]: ~5 ng/mL
A6 (trispecific scDb-scFv) (other, Single chain) DIQMTQSPSSLSASVGDRVTITCQASQTINYWLAWYQQKPGKAPKLLIYRASTLASGVPSRFSGSGSGTDFTLTISSLQPEDFATYYCQNYYYSTSRSYGFGGGTKLTVLGGGGGSEVQLVESGGGLVQPGGSLRLSCAASGFSLSSNAMGWVRQAPGKGLEYIGIISVGGFTYYASWAKGRFTISRDNSKNTVYLQMNSLRAEDTATYFCARDRHGGDSSGAFYLWGQGTLVTVSSGGGGSGGGGSGGGGSGGGGSDIQMTQSPSSLSASVGDRVTITCQSSESVYSNNQLSWYQQKPGQPPKLLIYDASDLASGVPSRFSGSGSGTDFTLTISSLQPEDFATYYCAGGFSSSSDTAFGGGTKLTVLGGGGGSEVQLVESGGGLVQPGGSLRLSCAASGFSFSSDYWMCWVRQAPGKGLEWIGCIYAGDVDDTDYASWARGRFTISRDNSKNTVYLQMNSLRAEDTAVYYCARVDGFDITYFDLWGQGTLVTVSSGGGGSGGGGSDIQMTQSPSSLSASVGDRVTINCQASESISSWLAWYQQKPGKRPKLLIYKASTLASGVPSRFSGSGSGTDYTLTISSLQPEDFATYYCQGYYLDSSVDDNVFGGGTKLTVLGGGGGSGGGGSGGGGSGGGGSEVQLVESGGGLVQPGGSLRLSCAASGIDFSTYGISWVRQAPGKGLEWIAYIYPDYGITDYASWVNGRFTISLDNAQNTVYLQMNSLRAEDTAVYYCARSGSYYSRGWGAHYFNLWGQGTLVTVSS | 0.06 | 0.2 | 26.8 | 30 | 1 | 0.6 | 0.0237 | 0.77 | 0.414 | 0.77 | 0.000365 | 475000 | 1.25 | 0.000332 | 266000 | ~70 | ≥ 70 | ≥ 70 | ≥ 70 | 10 | Kd [16]: 0.414 nM; koff [16]: 8.96e-05 s⁻¹; kon [16]: 216000 M⁻¹ s⁻¹; Kd [18]: 0.0237 nM; koff [18]: 2.66e-06 s⁻¹; kon [18]: 112000 M⁻¹ s⁻¹; rel. IC50 to secukinumab (IC50, secukinumab/IC50, test sample, ng/ml) [19]: 10; IC50 (read off the curve) [20]: ~5 ng/mL
